One series deals with ZFP 25 QSNR3-RDER1-RSNR (synthetic). Put plainly: cell_activity; HEK293 luciferase repression; same pair listed again as entry 61 with 1.5. The note with it: tags: HA tag and NLS (P3 vector). The procedure: (§1) The in vivo activity assay for a particular three-finger protein was carried out as follows. HEK 293 cells were transfected with four plasmids: 14 ng of a plasmid expressing the particular three-finger protein; 14 ng of the reporter plasmid described above; 70 ng of a plasmid that expresses GAL4-VP 16; and 1.4 ng of a plasmid that expresses Renillar luciferase. The GAL4-VP 16 activates transcription of the minimal synthetic promoter in the reporter so that the repression effected by a particular three-finger protein could be clearly detected and compared to other three-finger proteins. The plasmid expressing Renillar luciferase provides a control of transfection efficiency.
Chain of ZFP 25 QSNR3-RDER1-RSNR (synthetic) (chain, as listed by the source): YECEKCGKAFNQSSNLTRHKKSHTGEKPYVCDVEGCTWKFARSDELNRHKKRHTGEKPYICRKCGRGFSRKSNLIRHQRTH
Lipofectamine (Gibco-BRL) was used for the transfection procedures. Cells were transfected at 30-50% confluency in wells of a 96 well plate. The cells were incubated for two days prior to harvesting for the luciferase assay. Then luciferase activities were measured using the Dual-Luciferase™ Reporter Assay System (Promega). The observed firefly luciferase activity was normalized using the observed level of Renilla luciferase. The extent of repression or “fold-repression” was calculated by dividing a value for normalized reporter expression in the absence of a zinc finger protein by a value for normalized reporter expression in the presence of the zinc finger protein. […]

The target in series [1] is T1, Zif268 zinc finger protein (three fingers) (UniProt P08046 SEQ:1-89). Put plainly: EMSA; Zn2+, Mg2+, pH 7.7, RT; no yeast growth; 1.2-fold repression (Table 8).
Another series deals with ZFP 10 RDHT-RSHR-QSHR2 (synthetic). Put plainly: cell_activity; HEK293 luciferase repression. The note with it: tags: HA tag and NLS (P3 vector). As for the experimental part:
as §1
(§2) Lipofectamine (Gibco-BRL) was used for the transfection procedures. Cells were transfected at 30-50% confluency in wells of a 96 well plate. The cells were incubated for two days prior to harvesting for the luciferase assay. Then luciferase activities were measured using the Dual-Luciferase™ Reporter Assay System (Promega). The observed firefly luciferase activity was normalized using the observed level of Renilla luciferase. The extent of repression or “fold-repression” was calculated by dividing a value for normalized reporter expression in the absence of a zinc finger protein by a value for normalized reporter expression in the presence of the zinc finger protein.
(§3) A total of 153 three-finger chimeric proteins were constructed from both the “zinc finger protein-first” and the “target site-first” approaches. These proteins were tested using the transient cotransfection assay described in Example 68.

The target of series [2] is T1, Zif268 zinc finger protein (three …). The experiment in a line: EMSA; 20 mM Tris pH 7.7, 120 mM NaCl, 5 mM MgCl2, 20 uM ZnSO4, RT; yeast growth +++; 28-fold repression in human cells (Table 8). Background: Mobility shift assays separate free from complexed probe on a gel.
The next series deals with ZFP 15 VSNV-CSNR1-RSNR (synthetic). The experiment in a line: cell_activity; HEK293 luciferase repression. The note with it: tags: HA tag and NLS (P3 vector). As for the experimental part: as §1, §2, §3
Chain of ZFP 15 VSNV-CSNR1-RSNR (synthetic) (chain, as listed by the source): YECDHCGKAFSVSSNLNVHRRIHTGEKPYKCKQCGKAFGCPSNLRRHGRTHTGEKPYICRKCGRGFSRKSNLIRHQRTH
Another series addresses ZFP 32 QSNV2-RSNR-RDHT (Homo sapiens). Put plainly: cell_activity; HEK 293 luciferase. The note with it: tags: HA, NLS. The procedure: as §1, §2, §3
Series [3] has as its target T1, Zif268 zinc finger protein (three …). Put plainly: EMSA; Zn2+, Mg2+, pH 7.7, RT; no yeast growth; 1.6-fold repression (Table 8).
A further series deals with ZFP 27 RSHR-RDER1-RSHR (synthetic). Put plainly: cell_activity; HEK293 luciferase repression. Particulars: tags: HA tag and NLS (P3 vector). As for the experimental part: as §1, §2, §3
Chain of ZFP 27 RSHR-RDER1-RSHR (synthetic) (chain, as listed by the source): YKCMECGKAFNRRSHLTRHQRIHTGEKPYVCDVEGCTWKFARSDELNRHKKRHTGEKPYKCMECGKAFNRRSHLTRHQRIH
The next series concerns the target ZFP 29 QSNR3-RDHT-RSNR (synthetic). Put plainly: cell_activity; HEK293 luciferase repression. The note with it: tags: HA tag and NLS (P3 vector). As for the experimental part: as §1, §2, §3
The next series deals with ZFP 8 RSNR-QSHR2-QSSR1 (synthetic). The experiment in a line: cell_activity; HEK293 luciferase repression. Particulars: tags: HA tag and NLS (P3 vector). As for the experimental part: as §1, §2, §3
Chain of ZFP 8 RSNR-QSHR2-QSSR1 (synthetic) (chain, as listed by the source): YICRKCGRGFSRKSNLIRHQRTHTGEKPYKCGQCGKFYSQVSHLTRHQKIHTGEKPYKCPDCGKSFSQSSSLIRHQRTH
The target of the next series is ZFP 24 CSNR1-QSHT-RSNR (synthetic). The experiment in a line: cell_activity; HEK293 luciferase repression. The note with it: tags: HA tag and NLS (P3 vector). As for the experimental part:
as §1, §2, §3

A further series deals with ZFP 11 QSHT-RSHR-RDHT (synthetic). The experiment in a line: cell_activity; HEK293 luciferase repression. The note with it: tags: HA tag and NLS (P3 vector). As for the experimental part:
as §1, §2, §3

Series [4] deals with T1, Zif268 zinc finger protein (three …). The experiment in a line: EMSA; Zn2+, Mg2+, pH 7.7, RT; no yeast growth; 1.3-fold repression (Table 8).
For the next series, the target named is ZFP 16 QSHR2-RDER1-RSHR (synthetic). Put plainly: cell_activity; HEK293 luciferase repression. Particulars: tags: HA tag and NLS (P3 vector). The procedure:
as §1, §2, §3

The next series deals with ZFP 22 RSNR-VSSR-RSHR (synthetic). The experiment in a line: cell_activity; HEK293 luciferase repression. The note with it: tags: HA tag and NLS (P3 vector). The procedure:
as §1, §2, §3

For a further series, the target named is ZFP 26 QSNR3-QSNV2-RSHR (synthetic). The experiment in a line: cell_activity; HEK293 luciferase repression. The note with it: tags: HA tag and NLS (P3 vector). As for the experimental part:
as §1, §2, §3

Usually Kd stands for the equilibrium constant for the complex coming apart.

Chain of ZFP 24 CSNR1-QSHT-RSNR (synthetic) (chain, as listed by the source): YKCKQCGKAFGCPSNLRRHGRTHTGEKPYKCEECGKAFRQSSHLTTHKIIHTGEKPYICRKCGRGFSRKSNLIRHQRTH
Chain of ZFP 29 QSNR3-RDHT-RSNR (synthetic) (chain, as listed by the source): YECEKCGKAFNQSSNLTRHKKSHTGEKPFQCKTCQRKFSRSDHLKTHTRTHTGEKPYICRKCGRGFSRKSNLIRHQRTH
Chain of ZFP 11 QSHT-RSHR-RDHT (synthetic) (chain, as listed by the source): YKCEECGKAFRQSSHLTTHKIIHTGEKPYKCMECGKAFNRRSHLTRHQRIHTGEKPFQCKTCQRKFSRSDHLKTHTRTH
Chain of ZFP 16 QSHR2-RDER1-RSHR (synthetic) (chain, as listed by the source): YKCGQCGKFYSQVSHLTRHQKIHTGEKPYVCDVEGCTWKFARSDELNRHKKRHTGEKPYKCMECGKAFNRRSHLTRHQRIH
Chain of ZFP 32 QSNV2-RSNR-RDHT (Homo sapiens) (chain, as listed by the source): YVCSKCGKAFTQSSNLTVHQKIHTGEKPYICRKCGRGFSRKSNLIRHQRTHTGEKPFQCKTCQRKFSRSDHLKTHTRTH
Chain of ZFP 26 QSNR3-QSNV2-RSHR (synthetic) (chain, as listed by the source): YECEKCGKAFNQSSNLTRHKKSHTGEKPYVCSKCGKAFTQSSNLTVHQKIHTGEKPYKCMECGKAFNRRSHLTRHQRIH
Chain of ZFP 10 RDHT-RSHR-QSHR2 (synthetic) (chain, as listed by the source): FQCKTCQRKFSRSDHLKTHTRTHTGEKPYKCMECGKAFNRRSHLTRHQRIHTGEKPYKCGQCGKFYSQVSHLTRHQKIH
Chain of ZFP 22 RSNR-VSSR-RSHR (synthetic) (chain, as listed by the source): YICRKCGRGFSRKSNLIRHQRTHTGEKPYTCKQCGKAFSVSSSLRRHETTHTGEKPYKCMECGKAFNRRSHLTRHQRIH

B1: target 25 (dsDNA)
DNA 1: GAGGCGGAAA
DNA 2: TTTCCGCCTC
B1 yielded an activity with ZFP 25 QSNR3-RDER1-RSNR of 2.1 fold repression.

B2: GACT probe (dsDNA)
DNA 1: CCGGGTCGGGACTGGGCGGTACCG
DNA 2: TCGACGGTACCGCCCAGTCCCGAC
Consider B2, for which binding in [1] was put at a Kd of 4.9 nM.

B3: target 10 (dsDNA)
DNA 1: GGAGGGTGG
DNA 2: CCACCCTCC
B3 gave an activity with ZFP 10 RDHT-RSHR-QSHR2 of 3.1 fold repression.

B4: GCGT probe (dsDNA)
DNA 1: CCGGGTCGCGCGTGGGCGGTACCG
DNA 2: TCGACGGTACCGCCCACGCGCGAC
On to B4, for which, in [2], the Kd came to 0.024 nM.

B5: target 15 (dsDNA)
DNA 1: GAGGACAATG
DNA 2: CATTGTCCTC
B5: in the series with ZFP 15 VSNV-CSNR1-RSNR, the activity stood at 2.5 fold repression.

B6: target 32 (dsDNA)
DNA 1: GGGGAGAAA
DNA 2: TTTCTCCCC
The molecule B6 gave an activity in the series with ZFP 32 QSNV2-RSNR-RDHT of 1.9 fold repression.

B7: GAGC probe (dsDNA)
DNA 1: CCGGGTCGCGAGCGGGCGGTACCG
DNA 2: TCGACGGTACCGCCCGCTCGCGAC
On to B7, for which the Kd in series [3] amounted to 2.3 nM. In other words, the single-digit nanomolar range.

B8: target 27 (dsDNA)
DNA 1: GGGGTGGGG
DNA 2: CCCCACCCC
In the case of B8, in the series with ZFP 27 RSHR-RDER1-RSHR, the activity turned out to be 2 fold repression.

B9: target 29 (dsDNA)
DNA 1: GAGTGGGAAA
DNA 2: TTTCCCACTC
Consider B9, for which the activity with ZFP 29 QSNR3-RDHT-RSNR was determined as 2 fold repression.

B10: target 8 (dsDNA)
DNA 1: GTAGGAGAGT
DNA 2: ACTCTCCTAC
In the series with ZFP 8 RSNR-QSHR2-QSSR1, B10 displayed an activity of 3.3 fold repression.

B11: target 24 (dsDNA)
DNA 1: GAGTGAGACC
DNA 2: GGTCTCACTC
In the case of B11, the activity in the series with ZFP 24 CSNR1-QSHT-RSNR was 2.1 fold repression.

B12: target 11 (dsDNA)
DNA 1: TGGGGGTGA
DNA 2: TCACCCCCA
B12: the activity with ZFP 11 QSHT-RSHR-RDHT was found to be 3 fold repression.

B13: ACAT probe (dsDNA)
DNA 1: CCGGGTCGGACATGGGCGGTACCG
DNA 2: TCGACGGTACCGCCCATGTCCGAC
The molecule B13 registered a Kd in series [4] of 1.3 nM.

B14: target 16 (dsDNA)
DNA 1: GGGGCGGGAT
DNA 2: ATCCCGCCCC
Take B14: the activity with ZFP 16 QSHR2-RDER1-RSHR is 2.3 fold repression.

B15: target 22 (dsDNA)
DNA 1: GGGGTTGAG
DNA 2: CTCAACCCC
B15 registered an activity in the series with ZFP 22 RSNR-VSSR-RSHR of 2.1 fold repression.

B16: target 26 (dsDNA)
DNA 1: GGGAAAGAAC
DNA 2: GTTCTTTCCC
The molecule B16 displayed an activity in the series with ZFP 26 QSNR3-QSNV2-RSHR of 2 fold repression.
